Primed or numbered codes have the meaning given here. No end group written: not given here. Biotin′ = biotin label at the C-terminus

For assay [1], the target named is LAG-3-hFc protein (human LAG-3 extracellular region with hFc tag) (human) (UniProt P18627). Description: ELISA, inhibition of LSECtin-His binding to coated LAG-3-hFc, antibody 0.320 nM, replicate 2. For orientation: ELISA stands for enzyme-linked immunosorbent assay.
The target is the same in assay [2]. Briefly: FACS, inhibition of LAG-3-hFc binding to MHC II on Raji cells, antibody 200.000 nM. For orientation: A flow cytometer gives signals particle by particle.
The target of assay [3] is human LAG-3 on cells (HEK293-hLAG-3 stable cell line) (human) (UniProt P18627). Description: FACS, HEK293-hLAG-3, antibody 0.064 nM.
Assay [4] has the same target. Description: FACS, HEK293-hLAG-3, antibody 200.000 nM.
For assay [5], the target named is LAG-3-hFc protein (human LAG-3 extracellular region with hFc tag) (human) (UniProt P18627). Description: ELISA, inhibition of LSECtin-His binding to coated LAG-3-hFc, antibody 200.000 nM, replicate 2.
In assay [6] the target is human LAG-3 on cells (HEK293-hLAG-3 stable cell line) (human) (UniProt P18627). Description: FACS, HEK293-hLAG-3, antibody 0.013 nM.
Assay [7] has as its target monkey LAG-3 on cells (HEK293-cLAG-3 stable cell line) (monkey). Briefly: FACS, HEK293-cLAG-3, antibody 200.000 nM.
In assay [8] the target is LAG-3-hFc protein (human LAG-3 extracellular region with hFc tag) (human) (UniProt P18627). Briefly: FACS, inhibition of LAG-3-hFc binding to MHC II on Raji cells, antibody 7.407 nM.
For assay [9], the target named is human LAG-3 on cells (HEK293-hLAG-3 stable cell line) (human) (UniProt P18627). Description: FACS, HEK293-hLAG-3, antibody 0.000 nM.
Assay [10] has as its target LAG-3-hFc protein (human LAG-3 extracellular region with hFc tag) (human) (UniProt P18627). Briefly: FACS, inhibition of LAG-3-hFc binding to MHC II on Raji cells, antibody 0.823 nM.
The target is the same in assay [11]. Briefly: ELISA, inhibition of LSECtin-His binding to coated LAG-3-hFc, antibody 1.600 nM, replicate 1.
Assay [12] has as its target human LAG-3 on cells (HEK293-hLAG-3 stable cell line) (human) (UniProt P18627). Description: FACS, HEK293-hLAG-3, antibody 8.000 nM.
Assay [13] has as its target monkey LAG-3 on cells (HEK293-cLAG-3 stable cell line) (monkey). Description: FACS, HEK293-cLAG-3, antibody 0.064 nM.
Assay [14] concerns the target human LAG-3 on cells (HEK293-hLAG-3 stable cell line) (human) (UniProt P18627). Briefly: FACS, HEK293-hLAG-3, antibody 1.600 nM.
In assay [15] the target is T1, human LAG-3 on cells (HEK293-hLAG-3 stable cell line) (human, UniProt P18627 23-525).
T1 sequence: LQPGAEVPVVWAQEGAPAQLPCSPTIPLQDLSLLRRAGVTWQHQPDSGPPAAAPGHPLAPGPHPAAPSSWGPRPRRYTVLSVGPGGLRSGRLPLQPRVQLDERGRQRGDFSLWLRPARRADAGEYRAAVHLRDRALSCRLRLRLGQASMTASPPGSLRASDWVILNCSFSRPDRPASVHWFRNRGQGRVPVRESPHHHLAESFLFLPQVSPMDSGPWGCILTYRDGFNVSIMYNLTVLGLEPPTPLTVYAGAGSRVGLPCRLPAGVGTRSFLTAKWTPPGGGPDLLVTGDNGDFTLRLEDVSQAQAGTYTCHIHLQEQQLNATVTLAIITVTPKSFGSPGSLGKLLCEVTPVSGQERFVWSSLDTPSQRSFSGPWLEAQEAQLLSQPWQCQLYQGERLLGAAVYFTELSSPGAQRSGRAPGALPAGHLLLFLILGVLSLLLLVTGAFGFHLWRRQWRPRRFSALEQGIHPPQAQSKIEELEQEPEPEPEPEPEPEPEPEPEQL
Description: FACS, HEK293-hLAG-3, antibody 40 nM.

In assay [16] the target is T1, human LAG-3 on cells (HEK293-hLAG-3 …). Description: FACS, HEK293-hLAG-3, antibody 0.064 nM. The text has this: A. The binding of antibodies to LAG-3 expressing cells was detected by Flow cytometry (FACS), wherein the method was according to that of Example 5.
The target in a further assay is T2, HPAAPSSWGPRPK-Biotin (human).
T2 construct: Overlapping peptide of the outer loop of human LAG-3; also called LAG-3 Extra cyclic peptide
T2 peptide: HPAAPSSWGPRPK-{Biotin′}
Description: peptide scanning ELISA, biotin peptide on streptavidin. The protocol: (§1) Fifteen overlapping peptides including the full length of the outer loop sequence were prepared and biotin was coupled to each C-terminus. Enzyme-linked immunosorbent assay (ELISA) was used to detect the binding of antibodies to these peptides. Streptavidin (sigma, Cat #M5432) was diluted with PBS to a final concentration of 1.0 μg/ml, and then added as 100 μl per well to a 96-well ELISA plate. The plate was sealed with plastic film and incubated overnight at 4° C. The plate was washed 2 times with the plate washing solution (PBS+0.01% Tween20) on the next day, and added with the blocking solution (PBS+0.01% Tween20+1% BSA) and blocked at room temperature for 1-2 hours. The blocking solution was poured off, and biotinylated peptides was added to a final concentration of 1 ug/ml, as 100 ul per well to the 96-well ELISA plate, incubated at 37° C. for 1-2 hours, then washed with plate washing solution (PBS+0.01% Tween20)2-3 times. Then the antibody samples to be tested were incubated as 100 μl per well at 37° C. for 1-2 hours, and then the plate was washed 2-3 times with a plate washing solution (PBS+0.01% Tween20). HRP (horseradish peroxidase) labeled secondary antibody was added, and the plate was incubated at 37° C. for 1-2 hours, and washed 2-3 times with a plate washing solution (PBS+0.01% Tween20). 100 μl of TMB substrate was added to each well. After incubated at room temperature for 15-30 minutes, the plate was added with 100 μl of stop solution (1.0N HCl) to each well.

The target of the next assay is T3, PHPAAPSSWGPRK-Biotin (human).
T3 construct: Overlapping peptide of the outer loop of human LAG-3; also called LAG-3 Extra cyclic peptide
T3 peptide: PHPAAPSSWGPRK-{Biotin′}
The assay is described as above. The protocol:
as §1

monkey LAG-3 on cells (HEK293-cLAG-3 stable cell line) (monkey), sequence (P18627 other isoform, or with tags, fused parts or gaps limits assumed): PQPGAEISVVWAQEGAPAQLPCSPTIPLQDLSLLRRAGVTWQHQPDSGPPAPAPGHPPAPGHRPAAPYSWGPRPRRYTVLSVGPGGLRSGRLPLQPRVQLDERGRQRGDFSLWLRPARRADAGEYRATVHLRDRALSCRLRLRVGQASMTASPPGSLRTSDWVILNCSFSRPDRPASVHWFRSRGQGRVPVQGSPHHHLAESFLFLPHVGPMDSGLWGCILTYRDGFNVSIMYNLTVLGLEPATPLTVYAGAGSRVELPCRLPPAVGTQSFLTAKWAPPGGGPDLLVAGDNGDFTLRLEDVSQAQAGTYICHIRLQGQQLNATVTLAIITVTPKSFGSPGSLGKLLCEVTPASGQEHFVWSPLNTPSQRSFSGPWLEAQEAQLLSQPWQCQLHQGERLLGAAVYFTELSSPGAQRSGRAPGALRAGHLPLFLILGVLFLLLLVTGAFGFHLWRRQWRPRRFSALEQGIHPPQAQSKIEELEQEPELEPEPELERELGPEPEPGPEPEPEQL

On to hIgG control (antibody), for which the Inhibition rate (%) in assay [1] was -10.1%; in assay [2], 12.3%; in assay [5], -2.2%; in assay [8], 8.8%; in assay [10], 10.2%; in assay [11], -21.6%. In addition, the Mean fluorescence intensity in assay [3] came to 4; in assay [4], 3.1; in [6] it was 3; in [7] it was 2.9; in [9] it was 3; in assay [12] it was 3. In addition, the Mean fluorescence intensity in assay [13] stood at 3.04; in [14], 2.7.

B1: 556F6B8 mouse-human chimeric antibody (antibody, V domains shown)
VH: RVQLKQSGPGLVQPSQSLSITCTVSGFSLIKYGVHWVRQSPGEGLEWLGVIWRGGITDYNAAFMSRLSITKDNSKSQVFFKMNSLQADDTAIYYCAKWDGPLAMDYWGQGTSVTVSS
VL: DIVMTQSHKFLSTSVGDRVSITCKASQDVGTTVAWYQQKPGQSPKLLIYWASTRHTGVPDRFTGSGSGTDFTLTISNVQSEDLADYFCQQYSSYPYTFGGGTKLEIK
notes: also called mAb123-556F6B8; 556F8B8
Consider B1, for which the Mean fluorescence intensity in assay [15] came out at 96.

B2: 405B8H3 mouse-human chimeric antibody (antibody, V domains shown)
VH: QVQLQQSGAELVRPGASVTLSCKASGYTFTDYEMHWVKQTPVHGLEWIGATDPETGNSAYNQKFKGKAIMTADKSSSTAYMELRSLTSEDSAVYYCISTGWNDWGQGTSLTVSS
VL: DIKMTQSPSSMYASLGERVTITCKASQDINSYLSWFQQKPGKSPKTLIYRADRLLDGVPSRFSGSGSGQDYSLTISSLEYGDMGIYYCLQYDEFPYTFGGGTKLEIK
notes: also called mAb103-405B8H3
B2 returned a Mean fluorescence intensity in [16] of 19.

B3: 105F1E10 (mouse antibody purified from hybridoma) (antibody, V domains shown)
VH: EVQLQQSGPELVKPGASVKMSCRASGYTFTDFKMHWMKQSHGKSLEWIGYIAPNNGGTAYNQKFRGKATLTVNESSNTAYMELRSLTSEDSAVYYCVDWDDVDYWGQGTTLTVSS
VL: DIKMTQSPSSMYASLGERVTITCKASQDINSYLSWFQQKSGKSPKTLIYRANRLVDGVPSRFSGSGSGQDYSLTISSLEYEDMGIYYCLQYVEFPLTFGAGTKLELK
notes: also called mAb009-105F1E10
B3: the binding result in the assay with HPAAPSSWGPRPK-Biotin and with PHPAAPSSWGPRK-Biotin was “binds” each time.

For the origin of these results see patent US20210155689A1 (SHANGHAI PHARMAEXPLORER, published 2021).
